The experiment has as its system Botrytis cinerea. Description: In vitro microtiter plate antifungal assay, confluence analysis (IncuCyte S3) of spore outgrowth. It counts as cell-based. The text has this:
An “IC50 value”, “EC50”, “IC50”, “EC50” or “half maximal inhibitory concentration” as used herein interchangeably is a measure for the potency of a polypeptide or cell wall disrupting agent or compositions as described herein in inhibiting the growth of a fungal pathogen. In practice (also see example 1) the growth of a fungal pathogen is tracked by measuring the confluency of said fungal pathogen in for example a well of a 96-well plate or 384-well plate in the presence of a series of different concentrations of the tested polypeptide or cell wall disrupting agent or compositions as described herein. The confluency data at the time-point at which the non-treated or negative control reaches for example 90% saturation is then taken for each concentration of the polypeptide or cell wall disrupting agent or compositions as described herein. Said confluence values are then plotted against the log transformed concentration values yielding a sigmoidal curve. This sigmoid curve may serve to define an IC50 value. Where this IC50 is the concentration of the polypeptide or cell wall disrupting agent or compositions as described herein where the corresponding confluence value is 50% of the saturated value as estimated by the maximum of the sigmoidal function.
The antifungal activity of VHHs, in combination with CWDEs, was assessed in an in vitro assay against the plant pathogenic fungus Botrytis cinerea. The current in vitro assay is a standard microtiter plate-based antifungal assay against Botrytis cinerea based on confluence analysis using an IncuCyte S3 System tracking the outgrowth of fungal spores overtime until saturation is reached. VHHs and CWDEs were assessed in serial dilutions, alone and in combination. The CWDEs were mixed with one VHH at a fixed ratio and serially diluted in 10 mM sterile HEPES buffer pH 7. […] Confluence was calculated with IncuCyte software version 2021C (Essen BioScience Inc.). […]
The IC50 value for both the CWDE and VHH were determined separately (FIGS. 1A and 1B, top panel). […]

B1: VHH-1: VHH, SEQ ID NO 1; taken from WO2021198396 (protein)
VHH: DVQLVESGGGLVQAGGSLRLSCAASRSIFSINAMDWYRQAPGKQREWVAGITRGGTTKYADSVKGRFTISRDNAKKKVYLQMNSLKPEDTAVYYCNVLRGEQPWTRDYWGQGTQVTVSS
modifications: Synthetic VHH sequence.
As for B1, the “IC50 value, determined separately” value (VHH or CWDE alone, confluence of Botrytis cinerea, 4-parameter log-logistic fit, CWDE protein concentration overestimated) is 105.2 µg/mL. Moreover, the “% change, additive effect of component, buffer normalized to 100%” value (dose regime VHH-1 at 16.7 mg/L and CWDE at 25 mg/L, protease inhibitor 0.06 X) was 20.5%. For the same molecule, for the setting “dose regime VHH-1 at 16.7 mg/L and CWDE at 25 mg/L, protease inhibitor 0.06 X, buffer 55.3”, the “Estimate (% confluence), additive effect of component, difference from buffer” value is 11.3 % confluence.

The values above are taken from patent US20260026500A1, “AGROCHEMICAL COMPOSITIONS” (BIOTALYS NV, priority 2022, published 2026).
